± gives the uncertainty stated by the source.
test: protein stability index of a GFP-peptide fusion (yeast GPS) (PSI 1-4); higher = more stable; sorted into four equal gates, so the index is relative within each strain; details: doa10∆
Method in brief: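 Each library plasmid carries Cherry plus GFP with a tiled 17-residue yeast protein peptide fused downstream, and the pooled library was carried in yeast. Mid-log cultures in leucine-free medium were sorted into four equal gates by GFP/Cherry ratio. Reads from Illumina sequencing of PCR-amplified plasmids from each gate were assigned to strains by barcodes. Per peptide, the protein stability index was computed as the summed products of gate read frequency and gate number.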

Row | Sequence | protein stability index
1 | HTKSDERSELLRLFNAP [SNF2] | 2.83 ± 0.06
2 | HTLMSFAGEAGDTVQFA [PRE1] | 3.01 ± 0.11
3 | HVQFRLGNVDAFQLADG [PRP8] | 3.28 ± 0.11
4 | HWMGSSVSGSPRPSYSS [YMR129W/POM152] | 2.98 ± 0.088
5 | HYMVHEALNLLKFFLVD [LIN1] | 2.19 ± 0.053
6 | HYNDSQQLRTWKRQISY [SRB8] | 3.25 ± 0.085
7 | IAACTGVPDDKWEQTYK [FAS1] | 1.63 ± 0.15
8 | IAATAVASLVLARGHRV [RPL4A] | 2.6 ± 0.22
9 | IADQDMEDEDMVDVIID [ESC2] | 3.41 ± 0.16
10 | IAKIKKVCECVCMHCGK [RPO21] | 1.92 ± 0.057
11 | IAKLVAVLNVSPVYDVD [NUT1] | 1.84 ± 0.056
12 | IALRNGQSSVKHEDFVE [RPT5] | 2.89 ± 0.19
13 | IALSRRFLLNGRVKALE [YDL116W/NUP84] | 1.25 ± 0.062
14 | IARLYSCISISDIISML [RRI2] | 1.37 ± 0.061
15 | IASAGKDGEIMLWNLAA [ASC1] | 2.92 ± 0.077
16 | IASDGSECIVSIKSKVV [RRP42] | 3.1 ± 0.081
17 | ICEPKETLSIFTNVPLN [YJL039C/NUP192] | 2.1 ± 0.046
18 | ICYDVNDWQMLEMLKPC [RPB2] | 2.62 ± 0.063
19 | IDDENITKLNKEIRAFD [SRB4] | 3.44 ± 0.066
20 | IDELIDTKLRLEKSKNE [YIL149C/MLP2] | 2.62 ± 0.047
21 | IDKFIMVVQKYKLSTVV [GRR1] | 1.73 ± 0.068
22 | IDKLSDVVMKATEPQMV [PRP8] | 2.38 ± 0.063
23 | IDLDNDEDDDEDVTDQE [DLS1] | 3.21 ± 0.12
24 | IDRKVEFSLPDLEGRAN [RPT1] | 3.15 ± 0.097
25 | IDSQMDEASGTPDEDML [GRR1] | 2.93 ± 0.063

Row | Sequence | protein stability index
26 | IEDDGIIESHLIQLQNI [CSN9] | 2.77 ± 0.1
27 | IEDEDEPFNAGIKYHAT [SMC1] | 3.04 ± 0.083
28 | IEEQDKKVQALQSDKNF [ITC1] | 3.23 ± 0.076
29 | IEETSAAIKDLDDFGEE [RRP43] | 2.85 ± 0.19
30 | IEKLTDGHLRAPLKHGV [BRR2] | 1.72 ± 0.053
31 | IELTSYESIATYASVTG [RPN7] | 1.1 ± 0.077
32 | IEPFECVEISHISKIIG [RPN6] | 2.47 ± 0.14
33 | IERDSLVDDENEPSQSL [BRN1] | 3.27 ± 0.12
34 | IESDSILNLLNILTTHL [ECM29] | 2.39 ± 0.043
35 | IESIVNLAPKLRNVFLG [GRR1] | 1.94 ± 0.13
36 | IEWCSRCNDNLMRSCFY [YJL039C/NUP192] | 3.17 ± 0.089
37 | IFAGAFVFQTVFDTAIT [QCR9] | 1.61 ± 0.048
38 | IFALVFSSNERYFFWLQ [RPN13] | 1.25 ± 0.046
39 | IFCIDLEVFHHFFKWIE [SRB8] | 1.25 ± 0.092
40 | IFDGNYGESDIHFREHQ [YMR129W/POM152] | 3.26 ± 0.11
41 | IFIRQLKENEENEDGNI [BRR2] | 3.5 ± 0.094
42 | IFKGIGGNFKDLSTLVH [GAL11] | 2.07 ± 0.071
43 | IFLQQFLQELLKKVQQQ [SWI1] | 2.94 ± 0.098
44 | IFLSKENSAVAAKEGLA [COR1] | 1.48 ± 0.058
45 | IFSVHGNTVVDGEGKVD [YCG1] | 3.12 ± 0.2
46 | IFTDAGRVYRPLFIVED [RPB2] | 2.16 ± 0.066
47 | IGANIYQSPTIFKIVQS [MED6] | 2.25 ± 0.069
48 | IGAVYSGMGPDYRVLVD [PRE8] | 3.67 ± 0.28
49 | IGDKFASRHGQKGTIGI [RPB2] | 1.34 ± 0.07
50 | IGIVEIAHENEQKWLIY [SRB8] | 1.69 ± 0.067

Row | Sequence | protein stability index
51 | IGMSLLMRTFLYTLAQE [SIR3] | 1.82 ± 0.14
52 | IHLQRFDEGTTLLSPKD [RPO21] | 2.94 ± 0.14
53 | IHNYDSKKSTITVRYWL [RGR1] | 3 ± 0.087
54 | IIANINSFTKGNVFSPI [SNU114] | 2.18 ± 0.085
55 | IIDRGRNVLSASLDGTI [RPN14] | 3.1 ± 0.093
56 | IIELENINAKMETRINI [YIL149C/MLP2] | 3.06 ± 0.091
57 | IIFEIEKPLVVPVKLEE [RRP6] | 1.88 ± 0.079
58 | IILLGVLEDCRHLPMYT [ITC1] | 1.37 ± 0.064
59 | IIVKILYYRPHINKKSQ [GRR1] | 1.66 ± 0.096
60 | IKAPTVAADGKLVTYIV [YLR335W/NUP2] | 1.61 ± 0.07
61 | IKDLQRAINKVLCTRLR [SIR2] | 1.78 ± 0.063
62 | IKELEHLHDAVFVNTGL [SWP82] | 2.94 ± 0.067
63 | IKKEEGKIDEAADILCE [RPN5] | 3.1 ± 0.096
64 | IKKFAKLHMGTEDVRLA [RPL31B] | 3.21 ± 0.21
65 | IKKPTSAVVSSNASRRK [RPN4] | 2.47 ± 0.17
66 | IKNFKSLLLSSSFKEDC [SSN2] | 2.82 ± 0.11
67 | IKNLGLPSDRCSKAMGD [RPP1] | 3.36 ± 0.19
68 | IKVDGAVGNLGNAIEVT [RPL22B] | 1.74 ± 0.12
69 | IKVLLRQNRRPELGDKF [RET1] | 3.15 ± 0.25
70 | ILARNDEEMAVLTRMDE [SNF2] | 3.04 ± 0.071
71 | ILDAICFVLGIASMSTV [SMC2] | 1.45 ± 0.046
72 | ILDITDEELVSHFVSAV [RPP0] | 2.99 ± 0.12
73 | ILDPSTEYCVGDYVAYQ [YMR129W/POM152] | 2.83 ± 0.19
74 | ILEESLNAIILKLEKLN [SMC3] | 1.66 ± 0.061
75 | ILGDLGKEFGTTPEKPE [FAS2] | 2.83 ± 0.087

same assay, conditions: pdr5∆

Row | Sequence | protein stability index
76 | HTKSDERSELLRLFNAP [SNF2] | 2.72 ± 0.065
77 | HTLMSFAGEAGDTVQFA [PRE1] | 3.3 ± 0.15
78 | HVQFRLGNVDAFQLADG [PRP8] | 2.79 ± 0.084
79 | HWMGSSVSGSPRPSYSS [YMR129W/POM152] | 3.11 ± 0.089
80 | HYMVHEALNLLKFFLVD [LIN1] | 1.7 ± 0.043
81 | HYNDSQQLRTWKRQISY [SRB8] | 3.39 ± 0.14
82 | IAACTGVPDDKWEQTYK [FAS1] | 1.21 ± 0.23
83 | IAATAVASLVLARGHRV [RPL4A] | 1.93 ± 0.19
84 | IADQDMEDEDMVDVIID [ESC2] | 3.3 ± 0.079
85 | IAKIKKVCECVCMHCGK [RPO21] | 2.28 ± 0.067
86 | IAKLVAVLNVSPVYDVD [NUT1] | 2.05 ± 0.046
87 | IALSRRFLLNGRVKALE [YDL116W/NUP84] | 1.3 ± 0.058
88 | IARLYSCISISDIISML [RRI2] | 1.35 ± 0.05
89 | IASAGKDGEIMLWNLAA [ASC1] | 1.66 ± 0.053
90 | IASDGSECIVSIKSKVV [RRP42] | 3.12 ± 0.075
91 | ICEPKETLSIFTNVPLN [YJL039C/NUP192] | 2.24 ± 0.042
92 | ICMESLFLEPSWSSSAA [PCI8] | 2.86 ± 0.12
93 | ICYDVNDWQMLEMLKPC [RPB2] | 2.67 ± 0.086
94 | IDDENITKLNKEIRAFD [SRB4] | 3.33 ± 0.063
95 | IDELIDTKLRLEKSKNE [YIL149C/MLP2] | 2.81 ± 0.045
96 | IDKFIMVVQKYKLSTVV [GRR1] | 1.9 ± 0.081
97 | IDKLSDVVMKATEPQMV [PRP8] | 2.71 ± 0.064
98 | IDLDNDEDDDEDVTDQE [DLS1] | 2.89 ± 0.16
99 | IDRKVEFSLPDLEGRAN [RPT1] | 3.37 ± 0.1

Row | Sequence | protein stability index
100 | IDSQMDEASGTPDEDML [GRR1] | 2.96 ± 0.065
101 | IEDDGIIESHLIQLQNI [CSN9] | 3.17 ± 0.099
102 | IEDEDEPFNAGIKYHAT [SMC1] | 2.82 ± 0.1
103 | IEEQDKKVQALQSDKNF [ITC1] | 3.11 ± 0.054
104 | IEKLTDGHLRAPLKHGV [BRR2] | 2.86 ± 0.058
105 | IELTSYESIATYASVTG [RPN7] | 1.31 ± 0.068
106 | IERDSLVDDENEPSQSL [BRN1] | 3.41 ± 0.12
107 | IESDSILNLLNILTTHL [ECM29] | 2.02 ± 0.046
108 | IESIVNLAPKLRNVFLG [GRR1] | 1.41 ± 0.085
109 | IEWCSRCNDNLMRSCFY [YJL039C/NUP192] | 2.68 ± 0.085
110 | IFAGAFVFQTVFDTAIT [QCR9] | 1.35 ± 0.033
111 | IFALVFSSNERYFFWLQ [RPN13] | 1.61 ± 0.07
112 | IFCIDLEVFHHFFKWIE [SRB8] | 1.64 ± 0.16
113 | IFDGNYGESDIHFREHQ [YMR129W/POM152] | 3.21 ± 0.21
114 | IFIRQLKENEENEDGNI [BRR2] | 3.37 ± 0.19
115 | IFKGIGGNFKDLSTLVH [GAL11] | 1.74 ± 0.042
116 | IFLQQFLQELLKKVQQQ [SWI1] | 2.37 ± 0.12
117 | IFLSKENSAVAAKEGLA [COR1] | 2.19 ± 0.072
118 | IFSVHGNTVVDGEGKVD [YCG1] | 3.46 ± 0.18
119 | IFTDAGRVYRPLFIVED [RPB2] | 2.51 ± 0.08
120 | IGANIYQSPTIFKIVQS [MED6] | 2.08 ± 0.072
121 | IGDKFASRHGQKGTIGI [RPB2] | 1.96 ± 0.047
122 | IGIVEIAHENEQKWLIY [SRB8] | 1.83 ± 0.051
123 | IGMSLLMRTFLYTLAQE [SIR3] | 2.37 ± 0.083

Row | Sequence | protein stability index
124 | IHLQRFDEGTTLLSPKD [RPO21] | 2.57 ± 0.14
125 | IHNYDSKKSTITVRYWL [RGR1] | 2.88 ± 0.081
126 | IIANINSFTKGNVFSPI [SNU114] | 2.54 ± 0.067
127 | IIDRGRNVLSASLDGTI [RPN14] | 2.52 ± 0.065
128 | IIELENINAKMETRINI [YIL149C/MLP2] | 2.63 ± 0.11
129 | IIFEIEKPLVVPVKLEE [RRP6] | 2.28 ± 0.071
130 | IILLGVLEDCRHLPMYT [ITC1] | 1.59 ± 0.054
131 | IIVKILYYRPHINKKSQ [GRR1] | 2.63 ± 0.11
132 | IKAPTVAADGKLVTYIV [YLR335W/NUP2] | 1.92 ± 0.059
133 | IKDLQRAINKVLCTRLR [SIR2] | 1.33 ± 0.06
134 | IKELEHLHDAVFVNTGL [SWP82] | 2.9 ± 0.058
135 | IKKEEGKIDEAADILCE [RPN5] | 2.69 ± 0.12
136 | IKKFAKLHMGTEDVRLA [RPL31B] | 3.21 ± 0.22
137 | IKKPTSAVVSSNASRRK [RPN4] | 2.3 ± 0.17
138 | IKNFKSLLLSSSFKEDC [SSN2] | 2.98 ± 0.094
139 | IKNLGLPSDRCSKAMGD [RPP1] | 3.32 ± 0.13
140 | IKVDGAVGNLGNAIEVT [RPL22B] | 2.4 ± 0.076
141 | IKVLLRQNRRPELGDKF [RET1] | 3.49 ± 0.18
142 | ILARNDEEMAVLTRMDE [SNF2] | 2.87 ± 0.079
143 | ILDAICFVLGIASMSTV [SMC2] | 1.77 ± 0.054
144 | ILDITDEELVSHFVSAV [RPP0] | 2.88 ± 0.14
145 | ILDPSTEYCVGDYVAYQ [YMR129W/POM152] | 3.63 ± 0.18

Reference: the supplement of paper PMC9732359
